Publication PMC3025492

Molecular target: GST-capicua (1-450) (Homo sapiens, UniProt Q96RK0-2 1-450)
Assay: EMSA

B1: CRE probe (ETV4/ETV5 promoter CIC-responsive element) (dsDNA)
DNA 1: GTCGCGTTTTTTATGAATGAAAAACGTCCTTACATTCATT
DNA 2: AATGAATGTAAGGACGTTTTTCATTCATAAAAAACGCGAC
Question: Does B1 bind?
Answer: Result: binds
